The values that follow come from US20180030111A1.

Where two headings read alike, the source gives them in different places.

Assay [1] has as its target C1q complement (rabbit serum as complement source) (rabbit). The experiment in a line: cell-based or functional assay.
Assay [2] has as its target FcgRIIIa receptor (CD16a) on human NK cells (human) (UniProt P08637). The experiment in a line: cell-based or functional assay.
Assay [3] has as its target C1q complement (rabbit serum as complement source) (rabbit). In words: cell-based or functional assay. This is another data set of the same source.
For assay [4] the target is unchanged. The experiment in a line: cell-based or functional assay. This is another data set of the same source.
Assay [5] concerns the target CD32aH (FcgRIIa receptor, H at position 131) (human) (UniProt P12318). In words: ELISA, purified IgG on coated receptor, ratio against wild-type. On the technique in general: ELISA stands for enzyme-linked immunosorbent assay.
Assay [6] deals with CD32aR (FcgRIIa receptor, R at position 131) (human) (UniProt P12318). Described as above.
The target in assay [7] is CD32b (FcgRIIb receptor) (human) (UniProt P31994). The description is as above.
The next assay has as its target CD64 (UniProt P12314). Described as above.

Chain of CD64 (P12314 16-288 limits assumed): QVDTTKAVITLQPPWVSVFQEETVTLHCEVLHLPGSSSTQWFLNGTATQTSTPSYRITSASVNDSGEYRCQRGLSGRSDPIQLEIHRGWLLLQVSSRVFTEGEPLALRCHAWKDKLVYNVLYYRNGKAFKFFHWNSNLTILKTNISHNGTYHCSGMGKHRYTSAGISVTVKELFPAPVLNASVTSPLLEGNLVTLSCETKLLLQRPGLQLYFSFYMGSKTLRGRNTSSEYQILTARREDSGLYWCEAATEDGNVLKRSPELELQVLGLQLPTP
Chain of CD32aH (FcgRIIa receptor, H at position 131) (human) (P12318 34-217): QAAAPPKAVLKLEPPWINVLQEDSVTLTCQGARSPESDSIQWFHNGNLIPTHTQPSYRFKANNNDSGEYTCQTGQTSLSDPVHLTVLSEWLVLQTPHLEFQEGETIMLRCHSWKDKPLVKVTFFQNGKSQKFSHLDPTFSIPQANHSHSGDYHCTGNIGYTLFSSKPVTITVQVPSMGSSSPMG
Chain of CD32b (FcgRIIb receptor) (human) (P31994 46-217): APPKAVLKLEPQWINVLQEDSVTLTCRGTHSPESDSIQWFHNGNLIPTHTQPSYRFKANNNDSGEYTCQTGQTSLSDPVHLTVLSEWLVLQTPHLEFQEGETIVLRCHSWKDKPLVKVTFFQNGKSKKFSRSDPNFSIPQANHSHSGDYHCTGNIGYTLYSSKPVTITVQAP
Chain of FcgRIIIa receptor (CD16a) on human NK cells (human) (P08637 17-254): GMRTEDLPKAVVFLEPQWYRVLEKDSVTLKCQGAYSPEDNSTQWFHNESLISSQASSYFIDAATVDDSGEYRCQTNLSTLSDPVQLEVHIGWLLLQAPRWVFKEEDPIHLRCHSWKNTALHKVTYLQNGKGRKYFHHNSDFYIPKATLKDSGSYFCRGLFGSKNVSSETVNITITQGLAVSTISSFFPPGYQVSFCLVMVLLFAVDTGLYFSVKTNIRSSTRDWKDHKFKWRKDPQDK

In the case of “anti-CD20 IgG variant J3B-16 (S267G, A378T, V397M) (antibody)”, in assay [1], the CDC, Antibody concentration (ng/ml) giving 50% lysis of an internal control is 210 ng/mL and the CDC, Ratio [WT]/[antibody] came out at 1.25.
Consider “anti-CD20 IgG variant QL2A-16 (K248E, N421T) (antibody)”, for which, in assay [2], the ADCC, EC50: Antibody concentration (ng/ml) giving 50% maximum lysis of an internal control turned out to be 4.36 ng/mL and the ADCC, Ratio [WT]/[antibody] was determined as 2.41. In assay [3], the CDC, Antibody concentration (ng/ml) giving 50% lysis of an internal control worked out at 51.5 ng/mL and the CDC, Ratio [WT]/[antibody] was found to be 4.59.
Take “anti-CD20 IgG variant K3B-87 (V323I, F405L) (antibody)”: in assay [2], the ADCC, EC50: Antibody concentration (ng/ml) giving 50% maximum lysis of an internal control worked out at 16.3 ng/mL and the ADCC, Ratio [WT]/[antibody] was 0.64. Moreover, in assay [3], the CDC, Antibody concentration (ng/ml) giving 50% lysis of an internal control was 107 ng/mL and the CDC, Ratio [WT]/[antibody] worked out at 2.22.
As for “anti-CD20 IgG variant O3A-44 (A378V, K439R) (antibody)”, in assay [2], the ADCC, EC45: Antibody concentration (ng/ml) giving 45% maximum lysis of an internal control turned out to be 2.6 ng/mL and the ADCC, Ratio [WT]/[antibody] turned out to be 0.62. For the same substance, in assay [4], the CDC, Antibody concentration (ng/ml) giving 50% lysis of an internal control was found to be 129 ng/mL and the CDC, Ratio [WT]/[antibody] stood at 1.03.
Regarding “anti-CD20 IgG variant N3A-32 (K326T, K334N, P352S, N421T) (antibody)”, in assay [2], the ADCC, EC45: Antibody concentration (ng/ml) giving 45% maximum lysis of an internal control was 2.9 ng/mL and the ADCC, Ratio [WT]/[antibody] turned out to be 0.55. Also, in assay [4], the CDC, Antibody concentration (ng/ml) giving 50% lysis of an internal control amounted to 66 ng/mL and the CDC, Ratio [WT]/[antibody] is 2.02.
In assay [1], “anti-CD20 IgG variant G3A-95 (I336T, A378V) (antibody)” yielded a CDC of 1.3. In assay [2], the ADCC turned out to be 10.8; the ADCC, EC50: Antibody concentration (ng/ml) giving 50% maximum lysis of an internal control was found to be 0.97 ng/mL; the ADCC, Ratio [WT]/[antibody] stood at 10.8. Also, in assay [3], the CDC, Antibody concentration (ng/ml) giving 50% lysis of an internal control is 177 ng/mL and the CDC, Ratio [WT]/[antibody] is 1.34. In assay [5], the ELISA ratio (purified antibodies) was determined as 0.7. In addition, the ELISA ratio (purified antibodies) in assay [6] was determined as 0.9. In addition, in assay [7], the ELISA ratio (purified antibodies) worked out at 1. For the same substance, the ELISA ratio (purified antibodies) with CD64 was 1.3.
“anti-CD20 IgG variant A3A-184A (K334N, P352S, V397M, A378V) (antibody)” gave a CDC in assay [1] of 3.2. In addition, in assay [2], the ADCC is 30.9; the ADCC, EC50: Antibody concentration (ng/ml) giving 50% maximum lysis of an internal control was 0.34 ng/mL; the ADCC, Ratio [WT]/[antibody] is 30.9. In addition, in assay [3], the CDC, Antibody concentration (ng/ml) giving 50% lysis of an internal control was determined as 74.1 ng/mL and the CDC, Ratio [WT]/[antibody] was found to be 3.2. Also, the ELISA ratio (purified antibodies) in assay [5] came to 1.3. For the same substance, the ELISA ratio (purified antibodies) in assay [6] was determined as 4.3. Besides, the ELISA ratio (purified antibodies) in assay [7] came to 3.1. Besides, in the assay with CD64, the ELISA ratio (purified antibodies) stood at 1.5.
“anti-CD20 IgG variant N3A-58 (V284L, K334R, A378V, K447N) (antibody)”: in assay [2], the ADCC, EC45: Antibody concentration (ng/ml) giving 45% maximum lysis of an internal control is 4.4 ng/mL and the ADCC, Ratio [WT]/[antibody] is 0.36. Moreover, in assay [4], the CDC, Antibody concentration (ng/ml) giving 50% lysis of an internal control amounted to 36 ng/mL and the CDC, Ratio [WT]/[antibody] amounted to 3.69.
In turn, “anti-CD20 IgG variant J3B-23 (N286I, A378V, F423Y) (antibody)” showed a CDC in assay [1] of 2.4. In assay [2], this substance displayed an ADCC of 18.4 and an ADCC, EC50: Antibody concentration (ng/ml) giving 50% maximum lysis of an internal control of 0.57 ng/mL.
With “anti-CD20 IgG variant G3A-43 (A231V, A378V) (antibody)”, the CDC in assay [1] amounted to 2.8. The substance also returned a CDC, Antibody concentration (ng/ml) giving 50% lysis of an internal control in assay [1] of 168 ng/mL. For the same substance, in assay [1], the CDC, Ratio [WT]/[antibody] turned out to be 1.55. In assay [2], this substance returned an ADCC of 12. Besides, the ELISA ratio (purified antibodies) in assay [5] worked out at 5.3; in assay [6], 3.6; in assay [7], 2.7; with CD64 it was 1.4.
In the case of “anti-CD20 IgG variant DL4A-54 (P352L, Q418P) (antibody)”, in assay [2], the ADCC, EC50: Antibody concentration (ng/ml) giving 50% maximum lysis of an internal control was > 5000 ng/mL and the ADCC, Ratio [WT]/[antibody] is < 0.002. In assay [3], the CDC, Antibody concentration (ng/ml) giving 50% lysis of an internal control came out at 165 ng/mL and the CDC, Ratio [WT]/[antibody] was 1.44.
Turning to “anti-CD20 IgG variant P4B-89 (T307P, T366A, A378V) (antibody)”, in assay [2], the ADCC, EC45: Antibody concentration (ng/ml) giving 45% maximum lysis of an internal control amounted to 3.6 ng/mL and the ADCC, Ratio [WT]/[antibody] came out at 0.44. Moreover, in assay [4], the CDC, Antibody concentration (ng/ml) giving 50% lysis of an internal control was determined as 115 ng/mL and the CDC, Ratio [WT]/[antibody] is 1.16.
In the case of “anti-CD20 IgG variant O3A-86 (K248E, K290E, N361H, P396L) (antibody)”, in assay [2], the ADCC, EC45: Antibody concentration (ng/ml) giving 45% maximum lysis of an internal control turned out to be 4.4 ng/mL and the ADCC, Ratio [WT]/[antibody] is 0.36. Further, in assay [4], the CDC, Antibody concentration (ng/ml) giving 50% lysis of an internal control amounted to 44 ng/mL and the CDC, Ratio [WT]/[antibody] was 3.02.
For “anti-CD20 IgG variant G3A-45 (K246R, A378V) (antibody)”, in assay [1], the CDC, Antibody concentration (ng/ml) giving 50% lysis of an internal control was 195 ng/mL and the CDC, Ratio [WT]/[antibody] turned out to be 1.34.
In turn, “anti-CD20 IgG variant J3A-14 (K326T) (antibody)” showed a CDC in assay [1] of 3.7. The substance further gave an ADCC, EC50: Antibody concentration (ng/ml) giving 50% maximum lysis of an internal control in assay [2] of 7.39 ng/mL. In addition, the CDC, Antibody concentration (ng/ml) giving 50% lysis of an internal control in assay [3] was found to be 64.1 ng/mL.
Take “anti-CD20 IgG variant N3A-27 (K290E, A378V, K392R, S440G) (antibody)”: in assay [2], the ADCC, EC45: Antibody concentration (ng/ml) giving 45% maximum lysis of an internal control turned out to be 18.7 ng/mL and the ADCC, Ratio [WT]/[antibody] was determined as 0.86. Also, in assay [4], the CDC, Antibody concentration (ng/ml) giving 50% lysis of an internal control was 179 ng/mL and the CDC, Ratio [WT]/[antibody] stood at 0.74.
In assay [1], “anti-CD20 IgG variant A3A-184 (K334N, P352S, V397M) (antibody)” came in with a CDC of 2.2. Besides, in assay [1], the CDC, Antibody concentration (ng/ml) giving 50% lysis of an internal control turned out to be 210 ng/mL. In addition, in assay [1], the CDC, Ratio [WT]/[antibody] turned out to be 1.25. The same substance registered an ADCC in assay [2] of 5.3. Also, the ELISA ratio (purified antibodies) came to 1.33 in assay [5], 3.2 in assay [6], 3.3 in assay [7] and 1.4 with CD64.
In turn, “anti-CD20 IgG variant J3B-118 (P396L, N421T) (antibody)” displayed a CDC in assay [1] of 12.2. This substance returned a CDC, Antibody concentration (ng/ml) giving 50% lysis of an internal control in assay [1] of 38.7 ng/mL. Besides, the CDC, Ratio [WT]/[antibody] in assay [1] is 6.77. Further, the ADCC in assay [2] came to 9.7. Besides, the ELISA ratio (purified antibodies) in assay [5] was determined as 1; in assay [6], 1.1; in assay [7], 1; in the assay with CD64 it was 1.6.
For the substance “anti-CD20 IgG variant G3A-139 (T307N, V323I) (antibody)”, in assay [2], the ADCC, EC50: Antibody concentration (ng/ml) giving 50% maximum lysis of an internal control came to 2.8 ng/mL and the ADCC, Ratio [WT]/[antibody] came to 3.75. Also, in assay [3], the CDC, Antibody concentration (ng/ml) giving 50% lysis of an internal control amounted to 85.7 ng/mL and the CDC, Ratio [WT]/[antibody] came to 2.76.
As for “anti-CD20 IgG variant Q4B-68 (T307P, A378V, T394P) (antibody)”, in assay [2], the ADCC, EC45: Antibody concentration (ng/ml) giving 45% maximum lysis of an internal control was found to be 1.7 ng/mL and the ADCC, Ratio [WT]/[antibody] came to 0.94. In assay [4], the CDC, Antibody concentration (ng/ml) giving 50% lysis of an internal control is 126 ng/mL and the CDC, Ratio [WT]/[antibody] came to 1.06.
